Residue numbers refer to the chain shown, from its start.
T1: Y. pestis YscF protein (Yersinia pestis KIM5, UniProt O68691 1-87)
T1 construct: also called YscF antigen
T1 sequence: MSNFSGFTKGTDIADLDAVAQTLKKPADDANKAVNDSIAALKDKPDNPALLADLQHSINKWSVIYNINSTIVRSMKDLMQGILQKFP

B1: 1LCRV32 (VHH)
VHH: QVQLQESGGGMVEPGGSLRLSCAASGFRFSSYAMSWVRQAPGKGLERVSAINSDGDKTSYADSVKGRFTISRDNARNTLYLQMSNLKPEDTAVYYCADRDLYCSGSMCKDVLGGARYDFRGQGTQVTVSS
B2: 1LCRV28 (VHH)
VHH: QVQLQESGGGLVQPGGSLRLSCAASGGTLGYYAIGWFRQAPGKEREAVSCITSSDTSAYYADSAKGRFTISRDNAKNTMYLQMNNLKPEDTAVYYCAAGYYFRDYSDSYYYTGTGMKVWGKGTQVTVSS
B3: 1LCRV31 (VHH)
VHH: QVQLQESGGGLVQPGGSLGLSCAASGSLLNIYAMGWYRQAPGRQRELVATVTSSGTAEYADSVKGRFTISRDNAKNTVYLQMNSLRPEDTGVYYCNAHLRYGDYVRGPPEYNYWGQGTQVTVSS
B4: 1LCRV47 (VHH)
VHH: QVQLQESGGGLVQPGGSLILSCTISGASLRDRRVTWSRQGPGKSLEIIAVMAPDYGVHYFGSLEGRVAVRGDVVKNTVYLQVNALKPEDTAIYWCSMGNIRGLGTQVTVSS
B5: 2LCRV11 (VHH)
VHH: QVQLQESGGGLVQPGGSTRLSCAASGFTLDIYAIGWFRQAPGKEHEGVSWIVGNDGRTYYIDSVKGRFTISRDNAKNTVYLEMNSLKPEDTAVYYCAAKFWPRYYSGRPPVGRDGYDYWGQGTQVTVSS
B6: 1LCRV13 (VHH)
VHH: QVQLQESGGGLVRPGGSLKLSCAASGFTFNWYTMAWYRQVPGEERKMVATITGASGDTKYADSVKGRFTISRDNAKNTVTLQMNSLKPGDTAVYYCHAYLTYDSGSVKGVNYWGQGTQVTVSS
B7: 1LCRV81 (VHH)
VHH: B6 VHH with L11S, R13Q, F68S, Y99C
B8: 3F55 (VHH)
VHH: QVQLQESGGGLVQAGGSLRLSCAVSGMMYIREAIRWYRQAPGKQREWVAFVSSTGNPRYTDSVKGRFTISRDNAKNTVYLQMNSLTPEDTAVYYCNTYLGSRDYWGQGTQVTVSS
B9: 3F85 (VHH)
VHH: B8 VHH with A14P, E32Y, A33T, I34M, F50V, R58H, T60A
B10: 4F59 (VHH)
VHH: QVQLQESGGGLVRPGGSLRLSCEASGTTFRSLVMKWYRQAPGKEREWVAFISSPGDRTRYTEAVKGRFTISRDNAKNALYLQMNGLKPEDTAVYYCNANGIYWGKGTQVTVSS
B11: 3F5 (VHH)
VHH: QVQLQESGGGLVQSGDSLRLSCAASGFTFSNYAMSWVRQAPGKGLEWVSTINSGGGSTSYAYSVKGRFTISRDNAKNTLYLQMNSLKPEDTAVYYCAKTASHIPLSQGTQVTVSS
B12: 3F1 (VHH)
VHH: QVQLQESGGGLVQPGGSLRLSCAASGFTFSTSAMSWIRQPPGKAREVVATITSAGGSISYVNSVKGRFTISRDNAKNTLYLQMNMLKPEDTAVYYCARLVNLAQTGQGTQVTVSS
B13: 4F1 (VHH)
VHH: QVQLQESGGGLVQPGGSLSLSCSASGIIFSDYALTWYRQAPGKQREWVAQITRSQNINYTGSVKGRFTVSRDNAKNTVHLQMNSLKPEDTAVYYCHAYDGRRPPYWGQGTQVTVSS
B14: 4F6 (VHH)
VHH: B13 VHH with L11S, P103R, P104T
B15: 3F61 (VHH)
VHH: B13 VHH with S19R, T90A
B16: 4F34 (VHH)
VHH: B13 VHH with L11S
B17: 3F59 (VHH)
VHH: QVQLQESGGGLVQPGGSLRLSCAASGFTFSSYAMSWVRLAPGKGLEWVSTINIAGGITSYADSVKGRFTISRDNAKNTLYLQMNSLKPEDTAVYYCAKTAANWSAQRGQGTQVTVSS
B18: 3yscf57 (VHH)
VHH: QVQLQESGGGLVQAGGSLRLSCAASGRTWRAYYMGWFRQAPGKEREFVAVMSRSGGTTSYADSVKGRFTISRDNAKNTVYLQMNNLAPEDTATYYCKAGGGMYGPDLYGMTYWGKGTQVTVSS
B19: 3yscf75 (VHH)
VHH: QVQLQESGGGLVQAGDSRILSCTASGRTFGRPFRYTMGWFRRAPGKEREFVGGITRSGNNIYYSDSVKGRFTISRDNAKNTVYLQMNSLKPEDTAVYYCNADWGWRNYWGQGTQVTVSS
B20: 3yscf124 (VHH)
VHH: QVQLQESGGGLVQAGGSLRLSCVASGRAFSNYAMAWFRQAPGKEREFVAANWRSGGLTDYADSVKGRFTISRDDAKNTVYLQMNSLKPEDTAVYYCAAGGGSRWYGRTTASWYDYWGQGTQVTVSS
B21: 3yscf140 (VHH)
VHH: QVQLQESGGGLVQAGGSLRLACAASGETVDDLAIGWFRQAPGKEREEISCISGSDGSTYYADSLSGRFTISRDNVKNTVYLQMNSLKLEDTAVYYCYAEIYDRRWYRNDYWGQGTQVTVSS
B22: 3yscf142 (VHH)
VHH: QVQLQESGGGLVQAGGSLRLSCAASGRTFSSHAMAWFRQGPGEERQFLAAIRWNGDNIHYSDSAKGRFTISRDLAKNTLYLQMNSLKPEDTAVYYCARGVYDYWGQGTQVTVSS
B23: 3yscf15 (VHH)
VHH: QVQLQESGGGLVQAGGSLRLSCAVSGRTFSRYAMGWFRQAPGKEREFVAAISWSGSSTYYADSVKGRFTISRDHAKNVMYLQMNGLKPEDTGVYVCARPAYGLRPPYNYRGQGTQVTVSS
B24: 3yscf24 (VHH)
VHH: QVQLQESGGGLVQAGGSLKLSCTASQRTFSRYSLGWFRQAPGEERVFVAATTWSGISSDYADSVKGRFTISRDNAKNTGYLQMNNLKPEDTGVYYCAAGRSSWFAPWLTPYEYDYWGRGTQVTVSS

What follows are binders tested against T2, Y. pestis LcrV protein (Yersinia pestis KIM5, UniProt P0C7U7 1-326) (assay: SPR, BIACORE, LcrV immobilized on CM5 chip).
T2 construct: also called LcrV antigen
T2 sequence (P0C7U7 whole entry): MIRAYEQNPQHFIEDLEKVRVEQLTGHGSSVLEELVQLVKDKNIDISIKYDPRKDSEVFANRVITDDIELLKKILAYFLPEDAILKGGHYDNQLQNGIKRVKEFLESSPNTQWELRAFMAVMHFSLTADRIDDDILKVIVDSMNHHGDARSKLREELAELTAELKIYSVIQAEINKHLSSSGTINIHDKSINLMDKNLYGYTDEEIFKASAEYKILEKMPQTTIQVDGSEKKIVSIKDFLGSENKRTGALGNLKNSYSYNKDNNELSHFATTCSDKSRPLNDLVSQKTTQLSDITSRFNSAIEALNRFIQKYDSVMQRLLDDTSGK
With B1 the Kd was 22 nM.
In the case of B2, the Kd is reported as 0.19 nM.
For B3, the Kd was 0.0019 nM.
For B4, the Kd was over 1000 nM.
B5 showed a Kd of 8.2 nM.
Work on B6 yielded a Kd of 0.00063 nM.
With B7 the Kd was 3.5 nM.

These binders were tested against T3, Y. pestis F1 protein (Yersinia pestis KIM5, UniProt P26948 22-170) (assay: SPR, BIACORE, F1 immobilized on CM5 chip).
T3 construct: also called F1 antigen; Fl
T3 sequence (P26948 22-170 limits assumed): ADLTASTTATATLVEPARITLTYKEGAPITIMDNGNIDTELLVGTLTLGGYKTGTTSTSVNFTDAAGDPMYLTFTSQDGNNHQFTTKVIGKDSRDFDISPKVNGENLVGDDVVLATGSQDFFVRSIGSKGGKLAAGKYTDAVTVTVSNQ
In the case of B8, the Kd is reported as 2.2 nM.
With B9 the Kd was 15 nM.
For B10, the Kd was 27 nM.
B11 showed a Kd of 47 nM.
Binder B12 has a Kd of 97 nM.
B13 showed a Kd of 520 nM.
With B14 the Kd was 34 nM.
B15 gave a Kd of 68 nM.
Work on B16 yielded a Kd of 390 nM.
Work on B17 yielded a Kd of 5.9 nM.

The binders below were run against T2, Y. pestis LcrV protein (assay: SPR, BIACORE T200, LcrV on CM5 chip, 1:1 model).
B1 showed a koff of 0.0073 s⁻¹ and a kon of 340000 M⁻¹ s⁻¹.
B2 showed a koff of 8.1e-05 s⁻¹ and a kon of 430000 M⁻¹ s⁻¹.
With B3 the koff was 3.1e-07 s⁻¹ and the kon was 170000 M⁻¹ s⁻¹.
With B5 the koff was 0.0072 s⁻¹ and the kon was 880000 M⁻¹ s⁻¹.
B6 showed a koff of 1.6e-07 s⁻¹ and a kon of 250000 M⁻¹ s⁻¹.
With B7 the koff was 0.00063 s⁻¹ and the kon was 180000 M⁻¹ s⁻¹.

The binders below were run against T2, Y. pestis LcrV protein (assay: SPR, BIACORE T200, LcrV on CM5 chip, kd/ka).
B1 was tested, and the Kd was 22 nM.
Work on B2 yielded a Kd of 0.19 nM.
Binder B3 has a Kd of 0.0019 nM.
B5 was tested, and the Kd was 8.2 nM.
In the case of B6, the Kd is reported as 0.00063 nM.
With B7 the Kd was 3.5 nM.

What follows are binders tested against T3, Y. pestis F1 protein (assay: Microcal (calorimetry)).
B8 gave a Kd of 190 nM.
Binder B9 has a Kd of 110 nM.
Work on B10 yielded a Kd of 83 nM.
Binder B11 has a Kd of 83 nM.
For B12, the Kd was 110 nM.
B14 gave a Kd of 80 nM.
B15 gave a Kd of 290 nM.

These binders were tested against T2, Y. pestis LcrV protein (assay: Microcal (calorimetry)).
Binder B1 has a Kd of 26 nM.
B2 showed a Kd of 0.2 nM.
Binder B3 has a Kd of 0.76 nM.
In the case of B6, the Kd is reported as 3.2 nM.

Each binder was assayed against T1, Y. pestis YscF protein (assay: ELISA of periplasmic extract on YscF antigen and on blank wells, OD405).
B18: binds.
B19: binds.
B20: binds.
B21: binds.
B22: binds.
B23: binds.
B24: binds.

Reference: patent publication US20210139565A1 (GOVERNMENT OF THE UNITED STATES AS REPRESENTED BY THE …, published 2021)
